# Experimental data reported in patent publication US11312760 (NEWSOARA BIOPHARMA, dated 2022).
# Where a chain is given by its changes, count along the chain named.
# B1: Antibody 15A7 (recombinantly expressed in IgG1 form) (antibody, V domains shown)
# VH: QVQLVQSGAEVKKPGASVKVSCKASGYTFTSYDINWVRQASGQGLEWMGWMNPNSANPGYAQKFQGRVTMTRNTSISTAFMELSSLRSDDTAVYYCARARVTIHYDILTGYYSNAFDIWGQGTMVAVSS
# VL: DIQMTQSPSSLSASVGDRVTITCRASQTISSYLNWYQQKPGKAPKLLIYAASSLQSGVPSRFSGSGSGADFTLTISSLQPEDFATYYCQQSYTTFMYTFGQGTMLEIK
# B2: Antibody 37G2 (recombinantly expressed in IgG1 form) (antibody, V domains shown)
# VH: QVQLVQSGAEVKKPGSSVKVSCKASGGTFSSYAITWVRQAPGQGLEWMGGIIPIFGTANFAQKFQGRVTITADESTSTAYMELSSLRSEDTAVYYCAHLGGFADPFDYWGQGTLVTVSS
# VL: EIVLTQSPATLSLSPGERATLSCRASQSVSNYLAWYQQKAGQAPRVLIYDAFNRATGIPARFSGSGSGTDFTLTISSLEPEDFAVYYCQQRSNWPPRITFGQGTRLEIK
# B3: Antibody 31C2 (recombinantly expressed in IgG1 form) (antibody, V domains shown)
# VH: QVQLVQSGAEVKKPGSSVKVSCKASGGTFSSYAISWVRQAPGQGLEWMGGIIPIFGTTNYAQKFQGRVTITADESTSTAYMELNSLRSEDTAVYYCAGRSAYGDKGYYFDYWGQGTLVTVSS
# VL: B2 VL with Y32F, A40P, V46L, F52S, E79Q, R97Q, I98E, R105K, L106V
# Target: authentic SARS-CoV-2 (live virus)
# Test: cell-based or functional assay
row,Binder,EC50 of neutralization of live virus in Vero-E6 cells
1,B1,0.61 µg/mL
2,B2,1.37 µg/mL
3,B3,0.57 µg/mL
